Substitutions are numbered along the chain they refer to. Ends that are not written are not given here.
Columns and labels:
[1] = target: mouse CRF receptor, type 2β (mouse) (UniProt Q60748); experiment: SPA competition with 0.05 nM [125I-Tyr0]Svg, HEK-293 membranes; 95% CI (0.72-1.1)
[2] = target: T1, rat CRF binding protein C-terminally fused with a His6 sequence (rat) (UniProt P24388); experiment: SPA competition with 0.1 nM [125I-Tyr0]h/rCRF, His-tagged rCRFBP; 95% CI (45-70)
T1 sequence: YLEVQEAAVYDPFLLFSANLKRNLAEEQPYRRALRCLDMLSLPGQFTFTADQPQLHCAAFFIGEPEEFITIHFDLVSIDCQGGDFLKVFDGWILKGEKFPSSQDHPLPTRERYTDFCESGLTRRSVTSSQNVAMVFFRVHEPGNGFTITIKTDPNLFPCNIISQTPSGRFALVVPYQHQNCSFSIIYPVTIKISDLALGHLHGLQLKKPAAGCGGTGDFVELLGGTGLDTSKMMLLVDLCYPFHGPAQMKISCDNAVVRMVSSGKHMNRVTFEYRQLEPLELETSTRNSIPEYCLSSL

[3] = target: T1, rat CRF binding protein C-terminally fused with a His6 sequence (rat); experiment: SPA competition with 0.1 nM [125I-Tyr0]h/rCRF, His-tagged rCRFBP; 95% CI (0.66-1.0)
[4] = target: mouse CRF receptor, type 2β (mouse) (UniProt Q60748); experiment: SPA competition with 0.05 nM [125I-Tyr0]Svg, HEK-293 membranes; 95% CI (0.56-1.1)

B1: sauvagine (ligand)
peptide: QGPPISIDLSLELLRKMIEIEKQEKEKQQAANNRLLLDTI
modifications: ends and bridges not checked
IC50 [1]: 0.92 nM
IC50 [2]: 57 nM

B2: [Ala^21,23Arg^22]Svg (peptide)
peptide: B1 peptide with E21A, K22R, Q23A
modifications: ends and bridges not checked
IC50 [3]: 0.84 nM
IC50 [4]: 0.82 nM
